Patent US20140004122A1, “METHODS FOR TREATING OR PREVENTING CHOLESTEROL RELATED DISORDERS” (AMGEN INC., priority 2011, published 2014)

What was measured:
[1] = target: D374Y PCSK9 binding to LDLR (Homo sapiens, UniProt Q8NBP7, D374Y); experiment: Large scale receptor ligand blocking screen and functional classification of ABPs; settings: functional assays of the screening
Procedure: To screen for the antibodies that block PCSK9 binding to LDLR an assay was developed using the D374Y PCSK9 mutant. […] The following protocol was employed in the receptor ligand blocking screen: Costar 3702 medium binding 384 well plates (Corning Life Sciences) were employed in the screen. The plates were coated with goat anti-LDLR (R&D Cat #AF2148) at 2 μg/ml in 1×PBS/0.05% Azide at a volume of 40 μl/well. The plates were incubated at 4° C. overnight. The plates were then washed using a Titertek plate washer (Titertek, Huntsville, Ala.). A 3-cycle wash was performed. The plates were blocked with 90 μl of 1×PBS/1% milk and incubated approximately 30 minutes at room temperature. The plates were then washed using the Titertek plate washer. A 3-cycle wash was performed. The capture sample was LDLR (R&D, Cat #2148LD/CF), and was added at 0.4 μg/ml in 1×PBS/1% milk/10 mM Ca^2+ at a volume of 40 μl/well. The plates were then incubated for 1 hour and 10 minutes at room temperature. Contemporaneously, 20 ng/ml of biotinylated human D374Y PCSK9 was incubated with 15 micro liters of hybridoma exhaust supernatant in Nunc polypropylene plates and the exhaust supernatant concentration was diluted 1:5. The plates were then pre-incubated for about 1 hour and 30 minutes at room temperature. Next, the plates were washed using the Titertek plate washer operated using a 3-cycle wash. 50 μl/well of the pre-incubated mixture was transferred onto the LDLR coated ELISA plates and incubated for 1 hour at room temperature. To detect LDLR-bound b-PCSK9, 40 μl/well streptavidin HRP at 500 ng/ml in assay diluent was added to the plates. The plates were incubated for 1 hour at room temperature. The plates were again washed using a Titertek plate washer. A 3-cycle wash was performed. Finally, 40 μl/well of One-step TMB (Neogen, Lexington, Ky.) was added to the plate and was quenched with 40 μl/well of 1N hydrochloric acid after 30 minutes at room temperature. OD's were read immediately at 450 nm using a Titertek plate reader.
The receptor ligand assay was then repeated using the mutant enzyme on the 384 member subset of neutralizers identified in the first large scale receptor ligand inhibition assay. The same protocol was employed in the screen of the 384 member blocker subset assay as was done in the large scale receptor ligand blocking screen.
Limiting dilution was used to isolate a manageable number of clones from each line. […] The isolated clones were each expanded in 50-100 ml of hybridoma media and allowed to grow to exhaustion, (i.e., less than about 10% cell viability). The concentration and potency of the antibodies to PCSK9 in the supernatants of those cultures were determined by ELISA and by in vitro functional testing, as described herein.

[2] = Pharmacokinetics in cynomolgus monkeys; assay type: in vivo, cynomolgus monkey; settings: 0.5 mg/kg single SC
Procedure: Antibody concentrations in serum were determined using an enzyme-linked immunosorbent assay (ELISA) with an assay range of 34.4 to 3000 ng/mL (34.4 ng/mL being the lower limit of quantitation [LLOQ]).
Non-compartmental analysis (NCA) was performed on the serum concentrations using the pre-determined nominal time points for each subject using Watson® LIMS, version 7.0.0.01 (Thermo Scientific, Waltham, Mass.). Data points for estimating the terminal elimination rate constants and half-lives were chosen by visual inspection of the concentration-time profile and best linear fit (typically from 360 h until the antibody concentrations dropped below the lower limit of quantitation).
NCA parameters reported include: terminal half-life (t1/2,z), the maximum serum concentration (Cmax), area under the serum concentration-time curve from time zero to infinity (AUC0-inf), and apparent serum clearance (CL/F). AUC0-inf was calculated using the linear log-linear trapezoidal method. All parameters were all reported to three significant figures, except for half-life which was reported to two significant figures.

cynomolgus monkeys = experiment: Serum lipids after single subcutaneous dose in cynomolgus monkeys (Example 36); assay type: in vivo, cynomolgus monkey; settings: 0.5 mg/kg single SC
Excerpt: Briefly, naive male cynomolgus monkeys were acclimated to their environment for at least 2 weeks prior to experimentation. Animals were randomized into treatment groups based on a pre-screen of their serum TC, HDL-C, LDL-C, and triglyceride levels, and their body weight. After 1 week, animals were fasted overnight, and bled from the peripheral vasculature (cephalic or saphenous vein), for measurement of baseline serum lipid levels at a time point designated T=0. […] Fasting blood samples were then collected from animals at designated time points over a 45 day period.
At specified time points, blood was collected from animals under overnight fasting conditions from the peripheral vasculature (cephalic or saphenous vein). Whole blood was allowed to coagulate for 30 minutes at room temperature. Following centrifugation at 3,000 rpm for 20 minutes, serum was collected. Direct serum cholesterol analysis was performed using the Cobas Integra 400 analyzer (Roche Diagnostics Inc, Indianapolis, Ind.). Apolipoprotein B serum levels were determined at specified time points (day 0, 3, 6, 15, 24 and 33) by Anilytics, MD, with the following methodology. A 17 μL aliquot of the sample (no preparation) was used for analysis with a Hitachi 717 Analyzer using a 6 points standard curve. If the initial value of the sample was higher than the standard curve linearity, then the sample was diluted and repeated with the result multiplied by the appropriate dilution factor. The reagents for the assay (APO-B Reagent Kit #86071, Antibody Set #86060, Control Set #86103) were obtained from DiaSorin (Stillwater, Minn.).
A statistical model that considers baseline as a covariate and treatment group as a fixed effect was fit to the log transformed response at each time point for LDL-C, HDL-C, TC, and triglycerides. Tukey's multiple comparison correction was applied to adjust the pair wise comparisons at each time point. The statistical significance was evaluated at alpha=0.05 using adjusted p-values.

[3] = tested on: human patient exhibiting a risk of developing hypercholesterolemia; experiment: Prevention of hypercholesterolemia (Example 19); assay type: in vivo; settings: regularly administered (e.g., one time weekly)
Excerpt: At periodic times during the treatment, the patient is monitored to determine whether serum cholesterol levels have decreased.

healthy subjects = experiment: Phase 1 ascending single dose study (Example 20); assay type: in vivo, human

B1: 21B12: human anti-PCSK9 monoclonal antibody; light/heavy variable region SEQ ID NO 23/49 (antibody, listed as Homo sapiens, V domains shown)
VH: QVQLVQSGAEVKKPGASVKVSCKASGYTLTSYGISWVRQAPGQGLEWMGWVSFYNGNTNYAQKLQGRGTMTTDPSTSTAYMELRSLRSDDTAVYYCARGYGMDVWGQGTTVTVSS
VL: QSALTQPASVSGSPGQSITISCTGTSSDVGGYNSVSWYQQHPGKAPKLMIYEVSNRPSGVSNRFSGSKSGNTASLTISGLQAEDEADYYCNSYTSTSMVFGGGTKLTVL
neutralizing ability (blocking PCSK9/LDLR) [1]: neutralizing | half-life [2]: ~40 h | LDL-C returned to levels similar to control animals by day (cynomolgus monkeys): ≤ 6 days | TC returned to levels similar to control animals by day (cynomolgus monkeys): ≤ 4 days | maximal lowering of LDL-C as compared to anti-KLH IgG2 control antibody-treated monkeys (cynomolgus monkeys): 64% | maximal lowering of TC as compared to control animals (cynomolgus monkeys): 20% | time of maximal LDL-C lowering after injection (cynomolgus monkeys): 3 days | time of maximal TC lowering after injection (cynomolgus monkeys): 3 days | HDL-C levels (cynomolgus monkeys; 45 day study): lowered HDL-C at a single time point, 18 days after injection | triglycerides levels (cynomolgus monkeys; 45 day study): No statistically significant changes | HDL-C or triglyceride levels vs anti-KLH IgG2 control antibody-treated monkeys (cynomolgus monkeys; alpha=0.05): statistically significant change in HDL-C at a single time point (day 18 following injection) | serum ApoB levels vs anti-KLH IgG2 control antibody-treated monkeys (cynomolgus monkeys; days 3, 6, 15, 24 and 33): statistically significant lower ApoB levels at day 3 only | maximal lowering of LDL-C (vs anti-KLH IgG2 control antibody at the same time point) (cynomolgus monkeys; printed as negative change): −64% | serum cholesterol levels vs subjects that are not treated [3]: lowered serum cholesterol levels | AUC0-inf (median) (healthy subjects; 420 mg IV group): 1550 µg·days/mL | median maximum observed concentration (Cmax) (healthy subjects; 420 mg IV group): 139 µg/mL | subjects with treatment-related adverse events (healthy subjects; 18 of 42 subjects): 43% | subjects with treatment-emergent adverse events (healthy subjects; 21B12 at any dose, 29 of 42 subjects): 69% | anti-21B12 antibodies in serum (healthy subjects; all 42 subjects who received 21B12): negative | effects on laboratory variables, ECGs, vital signs (healthy subjects; in vivo): no trends indicative of clinically important effects | tolerability (healthy subjects; single SC and IV doses up to 420 mg): well tolerated | serious adverse events (healthy subjects; single SC or IV dose): No adverse events were reported as serious | LDL-C nadir observed within (after dosing) (healthy subjects; single dose): ≤ 2 weeks | elimination (healthy subjects; single dose SC or IV): nonlinear (concentration-dependent) elimination | suppression of PCSK9 (healthy subjects; single doses ≧70 mg SC): Complete suppression of PCSK9
